# US20150329626A1
# Target: human VEGFR2 on cells (ECFC, HMVEC-d) (human) (UniProt P35968)
# Assay: cell-based or functional assay
# human VEGFR2 on cells (ECFC, HMVEC-d) (human), sequence (P35968 20-1356): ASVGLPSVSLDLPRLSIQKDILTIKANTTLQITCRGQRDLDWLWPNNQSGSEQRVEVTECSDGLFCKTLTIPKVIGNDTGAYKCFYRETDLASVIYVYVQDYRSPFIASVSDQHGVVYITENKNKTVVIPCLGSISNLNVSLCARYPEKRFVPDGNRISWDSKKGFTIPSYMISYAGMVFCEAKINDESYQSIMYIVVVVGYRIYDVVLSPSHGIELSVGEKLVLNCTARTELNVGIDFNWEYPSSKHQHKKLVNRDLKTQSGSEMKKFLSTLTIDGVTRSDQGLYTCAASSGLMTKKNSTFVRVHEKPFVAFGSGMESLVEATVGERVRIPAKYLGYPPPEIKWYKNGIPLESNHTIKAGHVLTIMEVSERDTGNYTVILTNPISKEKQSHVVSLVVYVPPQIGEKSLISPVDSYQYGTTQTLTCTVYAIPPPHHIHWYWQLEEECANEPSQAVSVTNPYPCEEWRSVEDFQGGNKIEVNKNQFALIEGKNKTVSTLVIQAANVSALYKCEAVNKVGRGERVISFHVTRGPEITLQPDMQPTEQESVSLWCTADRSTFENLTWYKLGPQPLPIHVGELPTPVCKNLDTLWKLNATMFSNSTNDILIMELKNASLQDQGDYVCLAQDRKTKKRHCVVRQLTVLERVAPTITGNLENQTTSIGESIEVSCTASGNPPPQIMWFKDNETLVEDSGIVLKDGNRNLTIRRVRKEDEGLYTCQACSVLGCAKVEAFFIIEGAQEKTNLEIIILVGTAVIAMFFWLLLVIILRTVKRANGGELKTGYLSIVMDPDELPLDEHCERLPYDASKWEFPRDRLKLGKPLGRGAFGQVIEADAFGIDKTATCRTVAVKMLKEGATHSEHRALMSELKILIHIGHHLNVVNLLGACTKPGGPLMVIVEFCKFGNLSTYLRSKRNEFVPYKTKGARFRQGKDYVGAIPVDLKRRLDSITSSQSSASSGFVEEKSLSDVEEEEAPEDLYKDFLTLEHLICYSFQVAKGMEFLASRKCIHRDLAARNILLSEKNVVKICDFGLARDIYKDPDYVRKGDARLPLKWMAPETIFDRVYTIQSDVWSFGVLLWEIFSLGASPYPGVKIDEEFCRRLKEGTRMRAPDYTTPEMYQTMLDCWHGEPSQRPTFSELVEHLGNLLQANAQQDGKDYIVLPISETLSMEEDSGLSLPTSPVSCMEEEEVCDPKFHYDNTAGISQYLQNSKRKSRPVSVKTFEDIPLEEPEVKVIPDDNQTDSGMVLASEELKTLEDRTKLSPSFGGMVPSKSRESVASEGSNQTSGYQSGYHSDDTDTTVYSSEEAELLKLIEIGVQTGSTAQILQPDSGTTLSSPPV
substance,measurement,value
IMC-1121B (antibody),inhibition of human VEGF165-induced proliferation of HMVEC-d (IC50),31.4 nM
